Data on 1 substance can be found in US7049400.

This assay concerns the target MD9 (mammalian version of D9 mutant, EGFP-DEVD) (Aequorea victoria (Water jellyfish) (Mesonema victoria)) [GFP: P42212]. The assay is described as follows: cell-based or functional assay.

With “activated caspase-3 in HeLa cells induced to apoptosis by TNFα and cycloheximide (from UniProt P42574 29-277) (enzyme)”, the decrease in relative fluorescence intensity of mutant GFP in comparison to wild type GFP worked out at 50%.
